B1: KGF: keratinocyte growth factor having an amino acid sequence of SEQ ID NO: 44 (protein)
chain: CNDMTPEQMATNVNCSSPERHTRSYDYMEGGDIRVRRLFCRTQWYLRIDKRGKVKGTQEMKNNYNIMEIRTVAVGIVAIKGVESEFYLAMNKEGKLYAKKECNEDCNFKELILENHYNTYASAKWTHNGGEMFVALNQKGIPVRGKKTKKEQKTAHFLPMAIT
modifications: Human KGF
B2: T-KGF: SEQ ID NO: 1 peptide C-terminal linked to N-terminal of KGF via GG linker (protein)
chain: NGSLNTHLAPILGGCNDMTPEQMATNVNCSSPERHTRSYDYMEGGDIRVRRLFCRTQWYLRIDKRGKVKGTQEMKNNYNIMEIRTVAVGIVAIKGVESEFYLAMNKEGKLYAKKECNEDCNFKELILENHYNTYASAKWTHNGGEMFVALNQKGIPVRGKKTKKEQKTAHFLPMAIT
modifications: Synthetic Fusion protein of T-KGF
B3: T-VEGF: SEQ ID NO: 1 peptide C-terminal linked to N-terminal of VEGF via GG linker (protein)
chain: NGSLNTHLAPILGGAPMAEGGGQNHHEVVKFMDVYQRSYCHPIETLVDIFQEYPDEIEYIFKPSCVPLMRCGGCCNDEGLECVPTEESNITMQIMRIKPHQGQHIGEMSFLQHNKCECRPKKDRARQENPCGPCSERRKHLFVQDPQTCKCSCKNTDSRCKARQLELNERTCRCDKPRR
modifications: Synthetic Fusion protein of T-VEGF

How the values were obtained:
skin keratinocytes = test: Keratinocyte growth (skin barrier strengthening), Cell Counter Kit-8; format: cell-based; conditions: for Production (%) (keratinocyte growth): 100 ng/mL T-KGF or KGF, one day, control = 100
Procedure: (§1) Specifically, skin keratinocytes were cultured in a 96-well plate for one day to obtain cultures at a density of 6,000 cells per well. The cultures were washed with PBS and cultured in a serum-free DMEM medium for one day. The cells were washed with PBS again and cultured in a serum-free DMEM medium supplemented with 100 ng/mL T-IGF-1 or IGF-1 for one day. The cultures were obtained therefrom and a difference between proliferated amounts of cells was quantitively analyzed using the Cell Counter Kit-8 (Dojindo). Here, skin keratinocytes cultured in a serum-free DMEM medium without T-IGF-1 or IGF-1 were used as a control (Table 14).
Specifically, skin keratinocytes were cultured in a 96-well plate for 24 hours to obtain cultures at a density of 6,000 cells per well.
as §1, with “The” for “Specifically, skin keratinocytes were cultured in a 96-well plate for one day to obtain cultures at a density of 6,000 cells per well. The”, “T-KGF” for “T-IGF-1”, “KGF” for “IGF-1”, “18).” for “14).”

[1] = Skin retentivity of growth factor fusion proteins (porcine skin disrupted, ELISA); format: in vitro ADME; conditions: for Remaining amount (%): skin after 16 hours penetration test; for skin retentivity higher than the unfused protein: summary of Tables 8, 13, 17, 21, 25
Procedure: (§2) Specifically, the porcine skin remained after the experiment of Example 3-2-4 was recovered, frozen in liquid nitrogen, and disrupted. An amount of PDGFa or T-PDGFa contained therein was quantitatively analyzed using the ELISA kit (R&D Systems). In addition, a relative amount of T-PDGFa to PDGFa was calculated as a remaining amount (Table 8).
Specifically, the porcine skin remained after the experiment of Example 3-3-4 was recovered, frozen in liquid nitrogen, and disrupted. An amount of VEGF or T-VEGF contained therein was quantitatively analyzed using the ELISA kit (R&D Systems).
as §2, with “3-4-4” for “3-2-4”, “IGF-1” for “PDGFa”, “T-IGF-1” for “T-PDGFa”, “17).” for “8).”
as §2, with “3-5-3” for “3-2-4”, “KGF” for “PDGFa”, “T-KGF” for “T-PDGFa”, “21).” for “8).”
as §2, with “3-6-3” for “3-2-4”, “Tβ4” for “PDGFa”, “T-Tβ4” for “T-PDGFa”, “25).” for “8).”

dermal fibroblasts = test: Hyaluronic acid (HA) production in dermal fibroblasts (ELISA); format: cell-based, human; conditions: two days
Procedure: (§3) Specifically, dermal fibroblasts were inoculated onto a 24-well plate and cultured for 24 hours to obtain cultures having a saturation degree of 70 to 80%. The cultures were washed with PBS and cultured in a serum-free DMEM medium including 10 ng/mL T-PDGFa or PDGFa for two days. A supernatant was obtained therefrom and the amount of hyaluronic acid (HA) produced and released in the culture solution was quantitively analyzed using an ELISA kit (R&D Systems) (Table 5).
as §3, with “The cultures were washed with PBS and cultured in a serum-free DMEM medium including 10 ng/mL T-PDGFa or PDGFa for two days.” left out, “9).” for “5).”

[2] = test system: human umbilical vein endothelial cells; test: Endothelial cell proliferation, Cell Counter Kit-8; format: cell-based
Procedure: Specifically, human umbilical vein endothelial cells were inoculated onto a 96-well plate and cultured for 24 hours to obtain cultures at a density of 5,000 cells per well. The cultures were washed with PBS and cultured in a serum-free M199 medium for 16 hours. […] The cultures were obtained therefrom and a difference between proliferated amounts of cells was quantitively analyzed using the Cell Counter Kit-8 (Dojindo).
Specifically, human umbilical vein endothelial cells were inoculated onto a 96-well plate and cultured for 24 hours to obtain cultures at a density of 5,000 cells per well. The cultures were washed with PBS and cultured in a serum-free M199 medium for 16 hours. The cells were washed with PBS again and cultured in a serum-free M199 medium supplemented with 100 ng/mL T-Tβ4 or Tβ4 for one day. The cultures were obtained therefrom and a difference between proliferated amounts of cells was quantitively analyzed using the Cell Counter Kit-8 (Dojindo). Here, human umbilical vein endothelial cells cultured in a serum-free M199 medium without T-Tβ4 or Tβ4 were used as a control (Table 22).

Molecule | Production (%) (keratinocyte growth) (skin keratinocytes) | Remaining amount (%) ([1]; relative to KGF) | effect in keratinocyte growth test compared with the unfused protein (skin keratinocytes; skin keratinocytes, 100 ng/mL) | skin retentivity higher than the unfused protein [1] | Production (%) of hyaluronic acid (HA) (dermal fibroblasts; 10 ng/mL T-VEGF or VEGF, control = 100) [%] | hyaluronic acid producing effect compared with the unfused protein (dermal fibroblasts; 10 ng/mL) | Proliferation (%) ([2]; 100 ng/mL T-VEGF or VEGF, serum-free M199, one day, control = 100) | cell proliferation effect compared with the unfused protein ([2]; human umbilical vein endothelial cells, 100 ng/mL) | Remaining amount (%) ([1]; relative to VEGF)
B1 | 620 ± 25 | 100 ± 17% | – | – | – | – | – | – | –
B2 | 590 ± 27 | 9,700 ± 850% | same level | about 100 times | – | – | – | – | –
B3 | – | – | – | about 100 times | 230 ± 18 | same level | 185 ± 15 | same level | 9,800 ± 790%
